T1: FcγRIIa R (human, UniProt P12318 34-217)
T1 construct: extracellular domain; Soluble His-tagged extracellular domain expressed in FreeStyle293 cells; analyte in Biacore; also called FcgRIIa R; FcgRIIaR; not shown: His tag attached to the C terminus
T1 sequence (looked up): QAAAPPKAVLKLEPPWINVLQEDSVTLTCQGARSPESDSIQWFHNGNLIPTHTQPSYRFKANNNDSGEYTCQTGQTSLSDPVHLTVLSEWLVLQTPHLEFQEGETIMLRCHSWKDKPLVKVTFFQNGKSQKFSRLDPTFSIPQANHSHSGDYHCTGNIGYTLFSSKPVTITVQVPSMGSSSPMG

T2: FcγRIIb (human, UniProt P31994 43-217)
T2 construct: extracellular domain; Soluble His-tagged extracellular domain expressed in FreeStyle293 cells; analyte in Biacore; also called FcgRIIb; 2b; not shown: His tag attached to the C terminus
T2 sequence (looked up): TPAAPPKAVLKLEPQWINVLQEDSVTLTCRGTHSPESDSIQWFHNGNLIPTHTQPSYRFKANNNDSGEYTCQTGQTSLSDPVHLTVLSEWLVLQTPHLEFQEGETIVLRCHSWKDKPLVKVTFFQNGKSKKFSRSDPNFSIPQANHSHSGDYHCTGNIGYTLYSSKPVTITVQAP

T3: FcγRIIb (human, UniProt P31994 43-217)
T3 construct: extracellular domain; also called FcgRIIb; 2b
T3 sequence (looked up): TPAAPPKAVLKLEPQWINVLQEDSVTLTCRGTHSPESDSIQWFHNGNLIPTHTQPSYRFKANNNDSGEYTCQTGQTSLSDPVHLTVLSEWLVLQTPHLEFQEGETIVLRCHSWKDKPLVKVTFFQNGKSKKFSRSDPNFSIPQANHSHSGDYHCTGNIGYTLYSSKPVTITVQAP


Experiments:
[1] = biological target: T1, FcγRIIa R; assay: SPR (Biacore), antibody captured via antigen peptide, FcγR as analyte
[2] = biological target: T2, FcγRIIb; assay: as above
[3] = biological target: T1, FcγRIIa R; assay: ratio of He/Con_2aR to He/Con_2b (binding to FcγRIIb as reference); SPR
[4] = biological target: T4, FcγRIIIa (human, UniProt P08637 17-208); assay: SPR; He/Con_3a divided by He/Con_2b (FcγRIIIa against FcγRIIb)
T4 construct: extracellular domain; also called FcgRIIIa; 3a
T4 sequence (P08637 17-208): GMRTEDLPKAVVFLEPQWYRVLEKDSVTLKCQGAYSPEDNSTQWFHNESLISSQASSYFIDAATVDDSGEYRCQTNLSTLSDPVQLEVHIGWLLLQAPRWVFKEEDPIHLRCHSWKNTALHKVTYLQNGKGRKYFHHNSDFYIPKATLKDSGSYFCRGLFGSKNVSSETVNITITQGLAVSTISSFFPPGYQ

[5] = biological target: T3, FcγRIIb; assay: SPR (Biacore), relative binding
[6] = biological target: T4, FcγRIIIa; assay: SPR (Biacore), relative binding

| He/Con_2aR (IIaR binding relative to GpH7-A5/GpH7-B3/GpL16-k0) [1] | He/Con_2b (IIb binding relative to GpH7-A5/GpH7-B3/GpL16-k0) [2] | He_2aR/2b (IIaR/IIb) [3] | He_3a/2b (IIIa/IIb) [4] | He/Con_2b [5] | He/Con_3a [6] | Binder |
| --- | --- | --- | --- | --- | --- | --- |
| 56.7 % of control (control = 100) | 39.1 % of control (control = 100) | 1.45 | – | – | – | GpH7-A5/GpH7-B3 variant P329_16H/GpL16-k0 (antibody, human IgG1, kappa, Heterodimerized anti-glypican-3 IgG1 antibody; alteration only in the GpH7-B3 H chain; position in EU numbering; also called He Ab) heavy 1: not shown heavy 2: not shown light: DIVMTQSPLSLPVTPGEPASISCQASESLVHSNRNTYLHWYLQKPGQSPQLLIYKVSNRFSGVPDRFSGSGSGTDFTLKISRVEAEDVGVYYCSQNTHVPPTFGQGTKVEIERTVAAPSVFIFPPSDEQLKSGTASVVCLLNNFYPREAKVQWKVDNALQSGNSQESVTEQDSKDSTYSLSSTLTLSKADYEKHKVYACEVTHQGLSSPVTKSFNRGEC |
| – | – | – | 0.47 ratio | 51.5 % of GpH7-A5/GpH7-B3/GpL16-k0 | 24 % of GpH7-A5/GpH7-B3/GpL16-k0 | GpH7-A5/GpH7-B3 variant V266_01G/GpL16-k0 (antibody, human IgG1, kappa, mutation in the GpH7-B3 chain only; also called He Ab) heavy 1: not shown heavy 2: not shown light: DIVMTQSPLSLPVTPGEPASISCQASESLVHSNRNTYLHWYLQKPGQSPQLLIYKVSNRFSGVPDRFSGSGSGTDFTLKISRVEAEDVGVYYCSQNTHVPPTFGQGTKVEIERTVAAPSVFIFPPSDEQLKSGTASVVCLLNNFYPREAKVQWKVDNALQSGNSQESVTEQDSKDSTYSLSSTLTLSKADYEKHKVYACEVTHQGLSSPVTKSFNRGEC |
| 41.1 % of control (control = 100) | 30.7 % of control (control = 100) | 1.34 | – | – | – | GpH7-A5/GpH7-B3 variant P329_19Q/GpL16-k0 (antibody, human IgG1, kappa, Heterodimerized anti-glypican-3 IgG1 antibody; alteration only in the GpH7-B3 H chain; position in EU numbering; also called He Ab) heavy 1: not shown heavy 2: not shown light: DIVMTQSPLSLPVTPGEPASISCQASESLVHSNRNTYLHWYLQKPGQSPQLLIYKVSNRFSGVPDRFSGSGSGTDFTLKISRVEAEDVGVYYCSQNTHVPPTFGQGTKVEIERTVAAPSVFIFPPSDEQLKSGTASVVCLLNNFYPREAKVQWKVDNALQSGNSQESVTEQDSKDSTYSLSSTLTLSKADYEKHKVYACEVTHQGLSSPVTKSFNRGEC |
| 98.5 % of control (control = 100) | 77.9 % of control (control = 100) | 1.26 | – | – | – | GpH7-A5/GpH7-B3 variant S298_14T/GpL16-k0 (antibody, human IgG1, kappa, Heterodimerized anti-glypican-3 IgG1 antibody; alteration only in the GpH7-B3 H chain; position in EU numbering; also called He Ab) heavy 1: not shown heavy 2: not shown light: DIVMTQSPLSLPVTPGEPASISCQASESLVHSNRNTYLHWYLQKPGQSPQLLIYKVSNRFSGVPDRFSGSGSGTDFTLKISRVEAEDVGVYYCSQNTHVPPTFGQGTKVEIERTVAAPSVFIFPPSDEQLKSGTASVVCLLNNFYPREAKVQWKVDNALQSGNSQESVTEQDSKDSTYSLSSTLTLSKADYEKHKVYACEVTHQGLSSPVTKSFNRGEC |
| 95 % of control (control = 100) | 73.3 % of control (control = 100) | 1.3 | – | – | – | GpH7-A5/GpH7-B3 variant S298_19Q/GpL16-k0 (antibody, human IgG1, kappa, Heterodimerized anti-glypican-3 IgG1 antibody; alteration only in the GpH7-B3 H chain; position in EU numbering; also called He Ab) heavy 1: not shown heavy 2: not shown light: DIVMTQSPLSLPVTPGEPASISCQASESLVHSNRNTYLHWYLQKPGQSPQLLIYKVSNRFSGVPDRFSGSGSGTDFTLKISRVEAEDVGVYYCSQNTHVPPTFGQGTKVEIERTVAAPSVFIFPPSDEQLKSGTASVVCLLNNFYPREAKVQWKVDNALQSGNSQESVTEQDSKDSTYSLSSTLTLSKADYEKHKVYACEVTHQGLSSPVTKSFNRGEC |
| 100 % of control (control = 100) | 82.7 % of control (control = 100) | 1.21 | – | – | – | GpH7-A5/GpH7-B3 variant Y300_18N/GpL16-k0 (antibody, human IgG1, kappa, Heterodimerized anti-glypican-3 IgG1 antibody; alteration only in the GpH7-B3 H chain; position in EU numbering; also called He Ab) heavy 1: not shown heavy 2: not shown light: DIVMTQSPLSLPVTPGEPASISCQASESLVHSNRNTYLHWYLQKPGQSPQLLIYKVSNRFSGVPDRFSGSGSGTDFTLKISRVEAEDVGVYYCSQNTHVPPTFGQGTKVEIERTVAAPSVFIFPPSDEQLKSGTASVVCLLNNFYPREAKVQWKVDNALQSGNSQESVTEQDSKDSTYSLSSTLTLSKADYEKHKVYACEVTHQGLSSPVTKSFNRGEC |
| 55.4 % of control (control = 100) | 41.1 % of control (control = 100) | 1.35 | – | – | – | GpH7-A5/GpH7-B3 variant S298_20W/GpL16-k0 (antibody, human IgG1, kappa, Heterodimerized anti-glypican-3 IgG1 antibody; alteration only in the GpH7-B3 H chain; position in EU numbering; also called He Ab) heavy 1: not shown heavy 2: not shown light: DIVMTQSPLSLPVTPGEPASISCQASESLVHSNRNTYLHWYLQKPGQSPQLLIYKVSNRFSGVPDRFSGSGSGTDFTLKISRVEAEDVGVYYCSQNTHVPPTFGQGTKVEIERTVAAPSVFIFPPSDEQLKSGTASVVCLLNNFYPREAKVQWKVDNALQSGNSQESVTEQDSKDSTYSLSSTLTLSKADYEKHKVYACEVTHQGLSSPVTKSFNRGEC |
| 95.1 % of control (control = 100) | 61.3 % of control (control = 100) | 1.55 | – | – | – | GpH7-A5/GpH7-B3 variant S298_11K/GpL16-k0 (antibody, human IgG1, kappa, Heterodimerized anti-glypican-3 IgG1 antibody; alteration only in the GpH7-B3 H chain; position in EU numbering; also called He Ab) heavy 1: not shown heavy 2: not shown light: DIVMTQSPLSLPVTPGEPASISCQASESLVHSNRNTYLHWYLQKPGQSPQLLIYKVSNRFSGVPDRFSGSGSGTDFTLKISRVEAEDVGVYYCSQNTHVPPTFGQGTKVEIERTVAAPSVFIFPPSDEQLKSGTASVVCLLNNFYPREAKVQWKVDNALQSGNSQESVTEQDSKDSTYSLSSTLTLSKADYEKHKVYACEVTHQGLSSPVTKSFNRGEC |
